The subject of test [1] is isolated C. elegans mitochondria. In words: Mitochondrial matrix pH measurement (BCECF-AM). The test is classed as biochemical, Caenorhabditis elegans. The conditions noted are these: mtON activation by light. The protocol: The ratiometric pH indicator BCECF-AM (Thermo Fisher, B1170) was used to measure pH changes in the mitochondrial matrix in response to succinate respiration or mtON activation. Isolated mitochondria (˜200 μl per isolation) were incubated at room temperature with 50 μM BCECF-AM for 10 min with periodic mixing. Mitochondria were then pelleted at 7,000 g for 5 min at 4° C., and isolation media replaced and pelleted again to remove extramitochondrial BCECF-AM. Isolated mitochondrial suspensions were then assayed under the same conditions as in the mitochondrial membrane potential measurements described above. Ratiometric fluorescent signal was measured by Cary Eclipse Fluorescence Spectrophotometer (Agilent Technologies) using 440 and 490 nm excitation wavelengths and 545 nm emission. The fluorescence intensity ratio at 545 nm of 490/440 nm excitation wavelengths was used to represent pH changes in the mitochondrial matrix. Light treatment was 0.16 J/cm^2 (XCite LED, 0.02 mW/mm^2), and 2 μM FCCP was used at the end of each trace to establish baseline signal.

For test [2], the system named is C. elegans. In words: Hypoxia and reoxygenation with hypoxic preconditioning. The test is classed as in vivo, Caenorhabditis elegans. As to conditions: mtON activation during the short hypoxia (PC). The protocol:
Experiments were carried out using a hypoxic chamber (Coy Laboratory Products, 5%/95% H2/N2 gas, palladium catalyst) at 26° C. with 50-100 animals per plate. O2 was <0.01%. Hypoxic preconditioning (PC) duration was 4 h, and control animals were incubated at 26° C. in room air for the same time. 1 Hz illumination (Quantum LED, 0.02 mW/mm^2) was carried out during PC period or during the hypoxic period. Hypoxic exposure was for 18.5, 21 h after PC. Twenty-four hours after hypoxia exposure, animals that were moving or those that moved in response to a light touch to the head were scored as alive. Data from days where PC was at least 15% effective for both +ATR and −ATR were used. Animals supplemented with ATR were allowed to lay eggs onto plates with no ATR that were subsequently used for HR experiments to minimize confounding effects of ATR. ATR from the parent animal was sufficient to provide active mtON in progeny as tested by the azide toxin assay described above. […] FCCP dissolved in ethanol was deposited onto seeded NGM plates.

For test [3], the system named is isolated C. elegans mitochondria. In words: ATP measurement in isolated mitochondria (luciferase). The class given is biochemical, Caenorhabditis elegans. As to conditions: isolated mitochondria supplied with ADP, mtON activation. The protocol:
Relative ATP levels were determined in isolated mitochondria given a known amount of ADP to test the ability of mtON to drive ATP synthesis. A luciferase bioluminescence kit was used according to the manufacturer's instructions (Invitrogen™ Molecular Probes™, A22066). Mitochondria were stirred in MRB at 0.5 mg/ml with 1 mg/ml fat-free BSA, 600 μM ADP, and 2 μM rotenone. 5 mM succinate was used for a control for maximum ATP level, and 0.001 mg/ml oligomycin A was used as a zero ATP synthesis control. Mitochondrial suspensions were immediately frozen with liquid nitrogen after 1, 5, or 10 min light exposure (XCite LED, 0.02 mW/mm^2). Samples were then thawed on ice, centrifuged at 14,800 g, and supernatant was collected and run at 1:100 dilution in MRB in the luminescence assay. Oligomycin A control values were subtracted from experimental reads, and data were then normalized to luminescent signal from succinate control samples (complete ADP conversion confirmed by monitoring 02 consumption rate transitions).

Test [4] relates to mitochondria from HEK293T cells. Nature of the test: TMRE membrane potential of mitochondria isolated from HEK293T cells. The class given is biochemical. As to conditions: 540-600 nm light, absence of succinate. The text has this:
Stimulation of mtON with light results in polarization of the mitochondrial inner membrane. To determine whether mtON reaches the inner mitochondrial membrane in the correct orientation and to confirm the functional responsiveness of mtON, the study measured the mitochondrial membrane potential (Dym) using TMRE. The study first isolated mitochondria from HEK293T cells expressing mtON and treated them with succinate, a complex II ETC substrate, to generate a maximal mitochondrial membrane potential as a positive control (FIG. 9, panel D).
Based on this model, light stimulation of mtON results in the polarization of the mitochondrial inner membrane. To determine whether mtON reaches the inner mitochondrial membrane in the correct orientation and to confirm the functional responsiveness of mtON, the mitochondrial inner membrane potential (Δψm) was measured using tetramethylrhodamine, ethyl ester (TMRE). TMRE is a lipophilic cationic dye that accumulates in the mitochondrial matrix proportional to the mitochondrial membrane potential. First, mitochondria were isolated from HEK293T cells expressing mtON and treated them with succinate, a substrate for the ETC (complex II), to induce a maximal mitochondrial membrane potential as a positive control.

The next test concerns HEK293T cells. In words: Luciferase-based ATP assay in HEK293T cells. The test is classed as cell-based. As to conditions: 590 nm light, with or without 2-DG, vs cells in the dark. How it is done:
(A) HEK293T cells expressing mtOn or GFP were illuminated with 590 nm light for 2 hours, followed by a luciferase-based ATP assay. (B) Same set-up as in (A), except HEK293T cells were treated with 10 mM 2-DG for 2 hours prior to illumination. (C) Activated CD8+ T cells were sorted based on GFP expression. GFP negative cells were used as the mock control. CD8+ T cells received 590 nm light for 30 minutes, followed by a luciferase-based ATP assay. All data shown as mean±SEM and analyzed by an unpaired t-test (n=4-7).
To test whether mitochondrial polarization driven by light-activated proton transport leads to enhanced ATP production (FIG. 9, panel A), the study transfected HEK293T cells and mouse CD8+ T cells with mtON, illuminated the cells (590±10 nm, 0.32 mW/mm^2 at 1 Hz), and immediately lysed them to detect ATP. 2-Deoxy-D-glucose (2-DG), a glucose analog, was used to inhibit glycolysis and thus mimic the glucose-deficient TME.
To test whether the mitochondrial polarization driven by light-activated proton transport leads to enhanced ATP production, we transfected HEK293T cells and mouse CD8+T cells with mtON, illuminated (590±10 nm, 0.32 mW/mm^2 at 1 Hz) them, and immediately lysed to detect ATP. 2-Deoxy-D-glucose (2-DG), a glucose analog, was used to inhibit glycolysis and thus mimic the glucose-deficient tumor microenvironment.

Test [5] relates to C. elegans. In words: Locomotion assay (body bends). The class given is in vivo, Caenorhabditis elegans. The conditions noted are these: mtON activation. The protocol:
[…] One body bend was scored as a deflection of direction of motion of the posterior pharyngeal bulb. For AMPK activation, animals were placed on plates containing 1 mM AICAR 4 h before counting body bends. AICAR was dissolved in M9 buffer, added directly onto OP50 seeded plates, and allowed to dry. Illumination was continuous through measurements (MVX, 0.265 mW/mm^2).

B1: mtON: fusion of the 187 N-terminal amino acids of mouse IMMT1 to the light-activated proton pump (Mac) from Leptosphaeria maculans (protein)
chain: MLRACQLSGVTVAAQSCLCGKFVLRPLRPCRRYSTSSSSGLTAGKIAGAGLLFVGGGIGGTILYAKWDSHFRESVEKTIPYSDKLFGMVLGSAPYTVPLPKKPVQSGPLKISSVSEVMKDSKLPVAQSQKTKGDTPASAASTGAAQIISAAGDTLSVPAPAVQHEDTIKTECPNTNEGKSTSETTEEPAGLIVDQFEEVLMKTSQLFPLPTATQSAQPTHVAPVPTVLPDTPIYETVGDSGSKTLWVVFVLMLIASAAFTALSWKIPVNRRLYHVITTIITLTAALSYFAMATGHGVALNKIVIRTQHDHVPDTYETVYRQVYYARYIDWAITTPLLLLDLGLLAGMSGAHIFMAIVADLIMVLTGLFAAFGSEGTPQKWGWYTIACIAYIFVVWHLVLNGGANARVKGEKLRSFFVAIGAYTLILWTAYPIVWGLADGARKIGVDGEIIAYAVLDVLAKGVFGAWLLVTHANLRESDVELNGFWANGLNREGAIRIGEDDGAR
modifications: Synthetic Complete mtON fusion protein sequence
B1: the “mitochondrial matrix pH (BCECF-AM ratio)” value in test [1] was “matrix pH increased”. For the same molecule, the “protection conferred by hypoxic preconditioning” value in the test with C. elegans [2] is recorded as “suppressed”. Further, in test [3], the ATP levels entry is “increased ATP levels”. Further, in test [4], the “mitochondrial membrane potential (TMRE)” value was “sufficient to rescue the mitochondrial membrane potential”. Besides, the ATP result in the test on HEK293T cells is listed as “significant increase in ATP”. Further, the locomotion off food entry in the test on C. elegans [5] (animals off food) is “suppressing their movement”. In addition, the “locomotion speed (body bends per minute)” value with C. elegans [5] (complex I mutant background (gas-1), in presence of food) is “rescued the decreased locomotion”.

The values above are taken from patent US20260167679A1, “FUSION PROTEIN TARGETING MITOCHONDRIA, METHOD OF MAKING AND USE THEREOF” (UNIVERSITY OF ROCHESTER, priority 2020, published 2026).
